Measurements published in publication PMC3142112, “Rationally Designed Turn Promoting Mutation in the Amyloid-β Peptide Sequence Stabilizes Oligomers in Solution” (PLoS ONE, 2011).

What was measured:
Format in all cases: physicochemical
[1] = Thioflavin T fluorescence (aggregation / mature fibril formation); details: 25 µM fibrils (Aβ42WT) or SEC-eluted mutant oligomers, 5 µM ThT, 2 h incubation, excitation 440 nm, emission 480 nm, 25°C
Description: Thioflavin T fluorescence was used to assess aggregation and mature fibril formation as β-sheet content is directly correlated with fluorescence intensity of the dye.
(§1) Mean residue ellipticity (θ) was determined according to the equation θ = θObs • MRW/(10 • l • c); where θObs is observed ellipticity, MRW is mean residue weight of the peptide, c is peptide concentration (g/L), and l is optical path length (cm). The thioflavin T (ThT) binding studies of Aβ42WT and mutant peptides were carried out by incubating precipitated fibrils of the Aβ42WT or eluted oligomer preparation from the SEC column. The 25 µM amyloid fibrils (Aβ42WT) or oligomers of mutant were mixed with 5 µM of ThT dye concentration. After 2 h incubation, the fluorescence of the sample solutions were recorded by exciting at 440 nm and the intensity at 480 nm is monitored using Perkin-Elmer LC 55B spectrofluorimeter. The bandwidths of excitation/emission wavelengths were 5 nm/each.

[2] = Circular dichroism spectroscopy (conformation / fibril development)
Description: Conformational analyses of the mutant and Aβ42WT peptides were also carried out by Circular Dichroism (CD) spectroscopy.
The fibrils from the Aβ42WT preparation were centrifuged at 12000 rpm for 15 min to separate from any remaining monomer and the pellet was re-suspended in 10 mM phosphate pH 7.2 for CD measurement. CD measurements were performed using a 0.1 mm path length quartz cell in an Aviv 62A DS Circular Dichroism spectrometer (Aviv Associates, Lakewood, NJ) at 22°C.
as §1, with “The” for “Mean residue ellipticity (θ) was determined according to the equation θ = θObs • MRW/(10 • l • c); where θObs is observed ellipticity, MRW is mean residue weight of the peptide, c is peptide concentration (g/L), and l is optical path length (cm). The”

[3] = Atomic force microscopy of peptide preparations; details: 25 µM peptide adsorbed 10 min onto silicon wafers, tapping mode
Description: High-resolution analysis of the peptide solution preparations were carried out using atomic force microscopy (AFM).
AFM topography images were acquired in the light tapping mode regime using a Multimode AFM (Veeco, USA). Resonant frequencies of the uncoated silicon tips (MikroMasch, USA) were roughly 150 kHz, with scan rates around 5–8 µm/s. Peptide samples were prepared using the protocol described above and diluted to 25 µM before application. Peptide solutions were adsorbed by incubating onto Pirahna cleaned silicon wafers with molecular smoothness (∼1 Å RMS roughness) as determined by AFM. After incubating for 10 min, the wafers are gently washed repeatededly with MilliQ water.

[4] = One-dimensional 1H NMR of peptide preparations (soluble versus aggregated state); details: 10% DMSO/PBS
Description: All peptides were used as supplied. Solution samples of the peptides were prepared as follows. Peptides were dissolved in 1,1,1,3,3,3-hexafluoro-2-propanol (HFIP) to concentrations of 1 mM HFIP, evaporated over nitrogen, and then dried in a Savant Speed Vac for 1 hr. The resultant peptide films were further kept under vacuum for a few hours to remove solvent traces. The films were stored at −80°C until use. Peptide films were dissolved to ∼0.5 mM concentrations in 10% d6-DMSO/10 mM PBS buffer to a final pH of 7.2. The solutions were incubated at 4°C for 12 hours, and then transferred to 37°C for 4 hours. The resulting solutions were centrifuged at 13000 rpm in a desktop centrifuge (Eppendorf) at 4°C for 30 min to remove any precipitated gel-form of the peptides. After centrifugation, the peptide concentrations were adjusted to 0.4 mM (concentrations were checked by UV visible spectroscopy), 0.05% sodium azide added as a bacteriostat and transferred to 5 mm NMR tubes. […]
NMR spectra were acquired at the Stanford Magnetic Resonance Laboratory on a Bruker Avance 500 MHz spectrometer running TopSpin v1.3 and equipped with a 5 mm H{CN} Z-axis gradient CryoProbe. […] The data was processed in TopSpin and analyzed with SPARKY [38].

Substance: Aβ42WT: wild type form of Aβ42, recombinant purified, unlabeled and 15N-labeled, from rPeptide
- Thioflavin T fluorescence of Aβ42WT compared to Aβ42Nle35p37 [1]: about four
- conformation by CD spectrum ([2]; 0.1 mm path length cell, WT fibril pellet in 10 mM phosphate pH 7.2, mutant SEC-eluted): β-sheet rich, mature fibrils
- period over which aggregate develops into β-sheet rich, mature fibrils (CD) ([2]; PBS buffer, absorbance at ∼220 nm): 12 h
- mean globular structure height (AFM) [3]: 4.32 nm
- species formed in preparation ([4]; 0.4 mM): formed fibrils
- state in solution by 1D 1H NMR (amide/aromatic region) ([4]; pH 7.2, 25°C, samples prepared in the same manner): very little observable signal
